Laboratory results taken from patent US20140193417A1 (LUDWIG INSTITUTE FOR CANCER RESEARCH, published 2014).

Legend:
[1] = target: T1, GST/NaPi2b-4L fusion protein (311-340aa) (human, UniProt O95436 311-340); assay: Western blot of truncated GST fusion proteins
T1 construct: Expressed in E. coli; not shown: glutathione S-transferase (GST) tag of vector pGEX4T1
T1 chain (looked up): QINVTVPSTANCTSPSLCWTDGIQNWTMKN

[2] = target: T2, NaPi2b 324-338 array peptide Ac-SPSLCWTDGIQNWTM-amide (human); assay: synthetic peptide membrane array, 1 ug/ml antibody
T2 peptide: Ac-SPSLCWTDGIQNWTM-NH2
Protocol: (§1) For epitope mapping, membranes were incubated for 3 hours with 1 ug/ml primary antibody, followed by incubation with HRP-labeled goat anti-mouse polyclonal antibodies (Jackson ImmunoResearch Laboratories, West Grove, Pa.) for 2 hours. Bound antibody was visualized by chemiluminescence (Western Lightning Plus). For epitope mapping under reducing condition, membranes were incubated in 1 mM DTT for 1 hour at room temperature, and then washed extensively prior to antibody incubation.

[3] = target: T3, NaPi2b 312-340 array peptide with Ala at 328, Ac-INVTVPSTANCTSPSLAWTDGIQNWTMKN-amide (human, N-terminal acetyl (Ac-), C-terminal amide); assay: synthetic peptide membrane array, 1 ug/ml antibody
T3 peptide: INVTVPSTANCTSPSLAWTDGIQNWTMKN
Protocol: as §1

[4] = target: T4, NaPi2b 312-340 array peptide Ac-INVTVPSTANCTSPSLCWTDGIQNWTMKN-amide (human, N-terminal acetyl (Ac-), C-terminal amide); assay: synthetic peptide membrane array, 1 ug/ml antibody
T4 peptide: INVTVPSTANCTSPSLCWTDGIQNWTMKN
Protocol: as §1

[5] = target: T5, NaPi2b 317-340 array peptide Ac-PSTANCTSPSLCWTDGIQNWTMKN-amide (human, N-terminal acetyl (Ac-), C-terminal amide); assay: synthetic peptide membrane array, 1 ug/ml antibody
T5 peptide: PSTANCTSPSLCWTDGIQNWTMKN
Protocol: as §1

[6] = target: T6, NaPi2b 312-340 array peptide with Ala at 322 and 328, Ac-INVTVPSTANATSPSLAWTDGIQNWTMKN-amide (human, N-terminal acetyl (Ac-), C-terminal amide); assay: synthetic peptide membrane array, 1 ug/ml antibody
T6 peptide: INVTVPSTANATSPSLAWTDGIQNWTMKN
Protocol: as §1

[7] = target: T7, NaPi2b 320-340 array peptide Ac-ANCTSPSLCWTDGIQNWTMKN-amide (human, N-terminal acetyl (Ac-), C-terminal amide); assay: synthetic peptide membrane array, 1 ug/ml antibody
T7 peptide: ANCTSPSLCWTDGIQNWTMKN
Protocol: as §1

[8] = target: T8, NaPi2b 323-340 array peptide Ac-TSPSLCWTDGIQNWTMKN-amide (human); assay: synthetic peptide membrane array, 1 ug/ml antibody
T8 peptide: Ac-TSPSLCWTDGIQNWTMKN-NH2
Protocol: as §1

[9] = target: T9, NaPi2b 312-340 array peptide with Ala at 322, Ac-INVTVPSTANATSPSLCWTDGIQNWTMKN-amide (human, N-terminal acetyl (Ac-), C-terminal amide); assay: synthetic peptide membrane array, 1 ug/ml antibody
T9 peptide: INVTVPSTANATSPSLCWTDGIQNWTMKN
Protocol: as §1

[10] = target: T10, T330M variant 312-340 peptide (SLC34A p312-340 T330M) (human); assay: dot blot
T10 construct: also called T330M P312-340 peptide
T10 peptide: SPSLCWMDGIQNWTM
Excerpt: Corut et al have studied and identified mutations in SLC34A2 that are predicted to cause pulmonary alveolar microlithiasis and are possibly also associated with testicular microlithiasis (Corut, A. et al (2006) AM J. Hum Genet. 79:650-656). While analyzing normal controls, Corut identified a novel variant c.989C-T (p. T330M), whereby threonine is replaced with methionine, substituting a polar residue with a non-polar residue. This is presumed to inactivate the SLC34A2 protein. This T330M mutation is located within the MX35 epitope peptide region of SLC34A2. […] While MX35, L2 and L3 antibodies bind p312-340 peptide SEQ ID NO: 8, none of these antibodies bind T330M P312-340 peptide by dot blot analysis.

[11] = target: T11, sodium-dependent phosphate transport protein 2b (NaPi2b, SLC34A2), human, endogenous (human, UniProt O95436 1-690); assay: mixed hemadsorption assay (MHA) on SK-RC-33 renal cancer cells
T11 construct: whole, on cells; Naturally expressed, N-glycosylated membrane protein of human cancer cell lines (OVCAR-3, SK-RC-18 and others) and tissues; used on intact cells (MHA, flow cytometry), in cell or tissue lysates (Western blot, immunoprecipitation) and in tissue sections; also called MX35 antigen; NaPi2b/MX35
T11 sequence (looked up): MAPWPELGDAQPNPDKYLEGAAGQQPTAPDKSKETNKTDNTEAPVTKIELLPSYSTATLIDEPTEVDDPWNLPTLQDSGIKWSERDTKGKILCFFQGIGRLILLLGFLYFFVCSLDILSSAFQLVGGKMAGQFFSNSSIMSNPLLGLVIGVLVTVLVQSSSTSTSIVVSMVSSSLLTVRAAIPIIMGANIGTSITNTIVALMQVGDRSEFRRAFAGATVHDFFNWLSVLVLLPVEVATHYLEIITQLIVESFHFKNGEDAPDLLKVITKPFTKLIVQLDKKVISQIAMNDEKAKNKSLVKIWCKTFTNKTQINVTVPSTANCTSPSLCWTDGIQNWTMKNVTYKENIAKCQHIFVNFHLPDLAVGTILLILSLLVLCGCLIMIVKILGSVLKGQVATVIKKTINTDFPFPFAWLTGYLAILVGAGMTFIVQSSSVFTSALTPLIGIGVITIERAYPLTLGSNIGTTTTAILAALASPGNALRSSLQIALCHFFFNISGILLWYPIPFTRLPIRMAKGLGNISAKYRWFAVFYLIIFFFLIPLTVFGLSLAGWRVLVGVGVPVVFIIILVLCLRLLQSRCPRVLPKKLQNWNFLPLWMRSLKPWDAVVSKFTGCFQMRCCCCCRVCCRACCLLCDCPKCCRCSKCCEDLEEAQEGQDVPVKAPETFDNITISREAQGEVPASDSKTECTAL
Excerpt: A panel of cancer cell lines was co-typed for SLC34A2 mRNA expression by RT-PCR and for cell surface expression of MX35 protein antigen in a mixed hemadsorption assay (MHA) using mAb MX35 as probe. In addition, cell lysates were probed by Western blot analysis for MX35 expression. A panel of cancer cell lines with known expression of MX35 antigen was included. Strong expression of SLC34A2 mRNA correlated with MX35 antigen cell surface expression in all cells analyzed (Table 1). No such correlation was found for the Zinc-finger protein 638 (data not shown).

binding result [1]: binds
binding result [2]: binds
binding result [3]: binds
binding result [4]: binds
binding result [5]: binds
binding result [6]: binds
binding result [7]: binds
binding result [8]: binds
binding result [9]: binds
binding result [10]: no binding
binding result [11]: binds
B1: Murine mAb MX35 (IgG1) (antibody, V domains shown)
VH: QVQLKQSGAELVKPGASVKMSCKASGYTFTGYNIHWVKQTPGQGLEWIGAIYPGNGDTSYKQKFRGKASLTADTSSSTVYMQLSSLTSEDSAVYYCARGETARATFAYWGQGTLVTVSA
VL: DIQMTQTTSSLPASLGDRVTISCSASQDIGNFLNWYQQKPDGTVKVLIYYTSSLYSGVPSRFSGSGSGTDYSLTISNLEPEDIATYYCQQYSKLPLTFGAGTKLELKR
notes: also called MX35 MAb; monoclonal antibody MX35
